Assay results published in the nanobody polyreactivity screen of Harvey et al. (2022).

Assay: yeast display, Sf9 membrane polyspecificity reagent, FACS + sequencing; frameworks hold sequencing errors
In short: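 Galactose-induced (36–48 hours) yeast carrying a synthetic nanobody display library were exposed to 10% biotinylated, detergent-solubilized Sf9 membrane reagent at 4 °C for 1 hour. FACS followed streptavidin microbead enrichment, using low and high (top ~1%) gates for expression (anti-HA) and reagent binding (streptavidin). Colony PCR, MiSeq 2 × 250 sequencing and CDR-length filtering followed. Labels for polyreactivity reflect the gate of origin.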

Sequence	polyreactivity (PSR sort gate)
QVQLVESGGGLVQAGASLRLSCAASGRTFRYYAMGWYRQEPGKERELVAAITSGGSTYYADSVKGRFTISRDNAKKTVYLQMNSLKPEVTAVYYCAAVPAGLWGTYPQFRYGYWGQGTQVTVSS	high polyreactivity
QVQLVESGGGLVQAGASLRLSCAASGRTFWKYVMGWYRQAPGKDRLLVAVISRPAGSTYYADSVKGRFTISRDNAKNTVYLQMNSLKPEDTAVYYCAKRPKNKPVLGDFDHWGQGTQVTVSS	low polyreactivity
QVQLVESGGGLVQAGASLRLSCAASGSIFGVNAMGWYRQAPGKERELVAAISVSGGRTYYADSVKGRFTISRDNAKNTVYLLMNSLKPEDTAVYYCAATTYIWPYDYWGQGTQVTVSS	low polyreactivity
QVQLVESGGGLVQAGASLRLSCAASGSIFRRNAMGWYRQAPGKERELVAAISYRGGSTNYADSVKGRFTISRDNAKNTVYLQMNSLKPEDTAVYYCAAKIYRSSGQGMDYWGQGTQVTVSS	low polyreactivity
QVQLVESGGGLVQAGASLRLSCAASGSIFVRNAMGWYRQAPGKERELVAAISKRGTSTYFADSVKGRFTISRDNAKNTVYLQMNSLKPEDTAVYYCNAVLSNSRSYLIRLDYWGQGTQVTVSS	high polyreactivity
QVQLVESGGGLVQAGASLRLSCAASGSISKSYAMGWYRQAPGKERELVAAMSWRGGSTYADSVKGRFTISRDNAKNTVYLLMNCLKPEDSAVYYCAATNYGTFWGGQSERYDYWGQGTQVTVSS	low polyreactivity
QVQLVESGGGLVQAGASLRLSCAASGSTFDYYAMGWSRQAPGKELELVDAISRGGSTNYADSVKGRFTISRDNAKNSVYLQMNILKPEDTAVYYCAAAPTYRWHDGYWGQGTQVTVSS	low polyreactivity
QVQLVESGGGLVQAGASLRLSCAPSASIFSYNAMGWYSQAPGKERELVAAIDWSGGSTYYADSVKGRFTISRDNAKNTVYLQMNSLKPEDTEVYYCNAVGVFYYSYHYHQSDYWGQGTQVTVSS	low polyreactivity
QVQLVESGGGLVQAGASLRLSCAPSGSTFYPNSMAWYRQSPGKERHLVDAITSGGSTYYADSVKGRFTISRDNSKNTVYLQMNSLKPEDTAVYYCAAQRRYHQDTTIAPGNYYYWGQGTQVTVSS	low polyreactivity
QVQLVESGGGLVQAGASLRLSCASSGSISKSYAMGWYRQAPGKERELVAAISWRGGSTYADSVKGRFTISRDNAKNTVYLQMNSLKPVDTAVYYCAATNYGTFWVGQSERYDYWGQGTEVTVSS	low polyreactivity
QVQLVESGGGLVQAGASLRLSCPPSGFIFSLYAMGWYSQAPGKERELVADISWGDGTTYYADSVKGRFTISRDNAKNTVYLQMNSLKPEDTAVYYCAADSVSNWYWFNYWGQGTQVTVSS	high polyreactivity
QVQLVESGGGLVQAGCNLRISCAASGSTFTLYAMGWYRQAPGKERELVAGITYSGGSTFYADSVKGRFTISRDNAKNTVYLQMKSVKPEDTAVYFCGDVYVPYYWLGRSRGLYYWGQGTQVTVSS	high polyreactivity
QVQLVESGGGLVQAGCRLRLSCAASGITFYSYAMGWYRQAPGKERELVAAITLTGGTTYYADSVKGRFTISRDNAKNTVYLQMNSLKPEDTAVSYCAAQYWWWSRFEYDSWGQGTQVTVSS	low polyreactivity
QVQLVESGGGLVQAGCSLLLSCAASGRLFSLNAMGWYRQAPGKERELVAAITRSAASTHYADSEKGRFTISRDNAKNTVYLQMNSLKPEDTAVYYCAARFWYDYRHYDYWGQGTEVTVSS	low polyreactivity
QVQLVESGGGLVQAGCSLRISCAASGRTFSVYTMGWYRQAPGKERELVAAIRGRGGSTYYADSVKGRFTISRDNAKIPVYLQMNSLKPEDTAVYYCAARASIFGATFDYWGQGTQVTVSS	high polyreactivity
QVQLVESGGGLVQAGCSLRISCAASGSTFYPYAMGWYRQAPGKERELVAAISSGGSTYYADSVKGRFTISRDNAKNTVYLQMNSVKPEDTAVYYCAADFYYAYYWGQGTQVTVSS	low polyreactivity
QVQLVESGGGLVQAGCSLRLICAASGFTFGRNAMGWYRQAPGKEREFVADISGSVGSTYYADSVKGRFTISRDNAKNTVYLQMNSLKPEDTAVYYCAADTLYTRWEFDYWGQGTLVTVSS	high polyreactivity
QVQLVESGGGLVQAGCSLRLICAASGIIFVGYAMGWYRQAPGKDRELVAGINSGGSTNYADSVKGRFTISRDNAKNTVYLQMNSLKPEDTAVYYCAAYPYYYYGYDYWGQGTQVTVSS	low polyreactivity
QVQLVESGGGLVQAGCSLRLSCAASGFIFGRYTMGWYRQAPGKERELVAAISGSDVSTYYADSVKGRFTISRDNAKNTVYLQMNSLKPEDTAVYYCNAGPWWYLHEYDYWGQGTQVTVSS	low polyreactivity
QVQLVESGGGLVQAGCSLRLSCAASGFIFVRNAMGWYRQAPGKERELVAAISSSGGSTNYADSVKGRFTISRDNAKNTVYLQMNSLKPEDTAVYYCNAQRYYDYWGQGTQVTVSS	high polyreactivity
QVQLVESGGGLVQAGCSLRLSCAASGFTFDDYAMGWYRQAPGKERELVAAISWSGGSTYYADSVKGRFTISRDNAKNTVYLQMNSLKPEDTAVYYCAALRTGAQYSTMDYWGQGTQVTVSS	low polyreactivity

Sequence	polyreactivity (PSR sort gate)
QVQLVESGGGLVQAGCSLRLSCAASGFTFTTYAMGWYRQSPGKERELVAAISRSTGSTYYADSVKGRFTISRDNAKNTVYLKMNSMKPEDTAVYYCNTVFPNGYLSKYYYWGQGTKVTVSS	high polyreactivity
QVQLVESGGGLVQAGCSLRLSCAASGITFVGYAMGWYRQAPGKERELVAAISSSGGSTYYADSVKGRFTISRDNAKNTVYLQMNSLKPEDTAVYYCAKRRWWQKSLYDYWGQGTQVTVSS	high polyreactivity
QVQLVESGGGLVQAGCSLRLSCAASGLIFAVYTMGWYRQAPGKERELVAAITRRSTRTYYADSVKGRFTNSRDNAKNTVYLQMNSLKPEDTAVYYCAADRGSSGAAFEYWGQGTQVTVSS	low polyreactivity
QVQLVESGGGLVQAGCSLRLSCAASGLIFSKNVMGWYRQAPGKERELVAAISQRGGSTYYADSVKGRFTISRDNAKNTVYLQMNSLKPEDTAVYYCAADNSVSHEDYWGQGTQVTVSS	high polyreactivity
QVQLVESGGGLVQAGCSLRLSCAASGLTLRHYAMGWYRQSPGKERELVAAISWNTGSTYYADSVKGRFTISRDNAKNTVYLQMNSLKPEDTAVYYCAAVPRAYYQGLYYWGQCTQVTVSS	high polyreactivity
QVQLVESGGGLVQAGCSLRLSCAASGNTFGYYAMGWYRQAPGKERELVAAITSSGGRTYYADSVKGRFTISRDNAKNTVYLQMNSLKPEDTAVYYCAAGRVGARYPTYRFYYWGQGTLVTVSS	high polyreactivity
QVQLVESGGGLVQAGCSLRLSCAASGRIFNWYGMGWYRQAPGKERELVAGITYSASRTYYADSVKGRFTISRDNAKNTVYLQMNSLKPEDTAVYYCAAGRYHRDDGYDYWGQGTQVTVSS	low polyreactivity
QVQLVESGGGLVQAGCSLRLSCAASGRIFRRYAMGWYRQAPGKERELVAAITSGGGSTYYADSVKGRFTISRDNAKNTVYLQMNSLKPEDTAVYYCNKSSWEFVKGKYGYWGQGTQVTVSS	low polyreactivity
QVQLVESGGGLVQAGCSLRLSCAASGRIFWDNAMGWYRQAPGKERELVAAIDYRGGNTNYADSVKGRFTISRDNAKNTVYLQMNSLKPEDTAVYYCNAEWAVRYPGYDYWGQGTQVTVSS	low polyreactivity
QVQLVESGGGLVQAGCSLRLSCAASGRTFARYAMGWSRQAPGKVRELVAGISRSGDSTHYADSVKGRFTISRDNAKNTVYLQMNSRKPEDTSVYYCHKETPTIGARKYEYWGQGTQVTVSS	low polyreactivity
QVQLVESGGGLVQAGCSLRLSCAASGRTFDDYAMGWYRQAPGKERELVAAISSRCGSTYYADSVKGRFTISRDNAKNSVYLQMNSLKPEDTAVYYCNTLQSSHGSSQYDSWGQGTQVTVSS	low polyreactivity
QVQLVESGGGLVQAGCSLRLSCAASGRTFRYYAMGWYRQAPGKERELVAAISWRGGSTYYADSVKGRFTISRDNAKNTVYLQMNSLKPEDTAVYYCAAGILFGHYDYWGQGTQVTVSS	high polyreactivity
QVQLVESGGGLVQAGCSLRLSCAASGRTFSKYTMGWYRQAPGKERELVAAISGSGGSTYYADSVKGRFTISRDNAKNTVYLQMNSLKPEDTAVYYCAAEDEYNWYDDYFYTFDYWGQGTQVTVSS	low polyreactivity
QVQLVESGGGLVQAGCSLRLSCAASGSIFDDYAMGWNRQAPGKERELVAAISSSGTSTYYADSVKGRFTISRDNAKNTVYLQMNSLKPEVTAVYYCAARSAILKSGYLMDYWGQGTHVTVSS	low polyreactivity
QVQLVESGGGLVQAGCSLRLSCAASGSIFGYNAMGWYRQAPGKERELVAAITGSGGSTYYADSVKGRFTISRDNAKNTVYLQMNSLKPEDTAVYYCADDLFGGPLGYWDYDYWGQGTQVTVSS	low polyreactivity
QVQLVESGGGLVQAGCSLRLSCAASGSIFRYYAMGWYRQAPGKERELVAAITSSGGSTYYADSVKGRFTISRDNSKNTVYLQMNSLKPEDTAVYYCNARHVRYSRRENDYWGQGTQVTVSS	high polyreactivity
QVQLVESGGGLVQAGCSLRLSCAASGSTFFFNAMGWYRQAPGKERELVAAITGRCGSTYYADSVKGRFTISRDNAKNTVYLQMNSLIPEDTAVYYCAAEGVPYWSSRFWRYDYWGQGTQVTVSS	low polyreactivity
QVQLVESGGGLVQAGCSLRLSCAASGSTFGYYTMGWYRQAPGKERELVAAITRSGGSTYYADSVKGRFTISRDNAKNSVYLQMTSLKPEDTAVYYCAADDYWTTFGYWGLGTQVTVSS	low polyreactivity
QVQLVESGGGLVQAGCSLRLSCAASGSTFTTNAMGWYRQAPGKEREFVAAITSSGGSTYYADSVKGRFTISRDNAKNTVYLQMNSLKPEDNAVYYCNADGDPSQKLFGRSYDYWGQGTQVNVSS	low polyreactivity
QVQLVESGGGLVQAGCSLRLSCAASGSTFTYYAMGWYRQAPGKERESVAAISSNGGSTSYADSVKGRFTISRDNAKNTVYLQMNSLKPEDTAVYYCAARSKRLAHDYWGQGTQVTVSS	high polyreactivity
